Test results published in US20260263521A1 (AIMED BIO, published 2026).

Target: T1, recombinant human CD200R1 Fc chimera protein, CF (R&D systems, 3414-CD) (human, UniProt Q8TD46 27-266)
T1 construct: Bought; also called CD200R1-Fc protein; human CD200R1 Fc protein; Fc part of the bought chimera not given
T1 sequence (looked up): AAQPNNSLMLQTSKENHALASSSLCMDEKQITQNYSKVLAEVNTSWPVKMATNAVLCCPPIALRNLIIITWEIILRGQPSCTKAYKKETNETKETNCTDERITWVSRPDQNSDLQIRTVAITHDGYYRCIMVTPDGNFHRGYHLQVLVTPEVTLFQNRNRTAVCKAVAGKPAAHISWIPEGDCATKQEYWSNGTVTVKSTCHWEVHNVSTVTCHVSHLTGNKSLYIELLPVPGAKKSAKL
Experiment: ELISA, plate-bound human CD200R1-Fc (2 ug/mL), IgG 0.0192-300 nM, anti-human IgG F(ab')2-HRP, OD 450 nm; panel 'human CD200R1'
Experimental: 96-well plates were coated with human CD200R1 (R&D systems, 3414-CD) and mouse CD200R1 protein (R&D systems, 2554-CD) at a concentration of 2 μg/mL at 4° C. for 16 hours and then were blocked with 3% skim milk.
Color was developed with a TMB substrate solution (Thermo Scientific, 34029, 1-Step™ TMB-ELISA Ultra Substrate Solution). The color reaction was stopped with stop solution (Invitrogen, SS04, ELISA Stop Solution). The absorbance was measured at an optical density of 450 nm.

B1: P001009 (IgG) (antibody, V domains shown)
VH: EVQLLESGGGLVQPGGSLRLSCAASGFTFSSYDMSWVRQAPGKGLEWVSWISHGGGSIYYADSVKGRFTISRDNSKNTLYLQMNSLRAEDTAVYYCARDAPAYSAPLFDYWGQGTLVTVSS
VL: QSVLTQPPSASGTPGQRVTISCSGSSSNIGNNAVNWYQQLPGTAPKLLIYYDSNRPSGVPDRFSGSKSGTSASLAISGLRSEDEADYYCAAWDDSLSGYVFGGGTKLTVL
notes: also called P001009 WT; P001009 wt
EC50 (read off the curve): ~0.5 nM
